Changes are numbered by the printed parent chain.
B1: RBD-chAb-15 (antibody, V domains shown)
VH: EVQLEESGPGLVQPSQSLSITCTVSDFSLTTYGVHWVRQSPGKGLEWLGVIWSGGSTDYNAAFISRLSISKDNSKSQVFFKMNSLQTNDTAIYYCARMGDGYYVGAMDYWGQGTSVTVSS
VL: DIQLTQSPAILSVSPGERVSFSCRASQSIGTSIHWYQQRTNGSPRHLIKYASESISGIPSRFSGSGSGTDFTLTINGVESEDIADYYCQQGHNWPLTFGAGTKLDIK
B2: RBD-chAb-28 (antibody, V domains shown)
VH: QVQLQQPGTELVMPGASVKMSCKASGYTFTDYYLHWMKQRPGQGLEWIGAIDSSDSYTDYNQNFKGKATLTVDESSSTAYMHLSSLTSEDSAVYYCARGKDAYDRRPWFAYWGQGTLVTVSA
VL: DIQMTQTTSSLSASLGDRVTISCSASQGIRYYLNWYQQKPDGTVKLLIYYTSNLHSGVPSRFSGSGSGTDYSLTISNLEPEDIATYYCQQYNKLPYTFGGGTKLDIK
B3: RBD-chAb-45 (antibody, V domains shown)
VH: EVQLQQSGPELVKPGASVKISCKTSGYTFTEYTIYWVKQSLGKSLEWIGGNNPNNDDTTYKQFFKGKATLTVDKSSSTAYMELRSLTSEDSAVYYCARDGYPYYYALDFWGQGTSVTVSS
VL: DILMTQSQKFMSTSVGDRVSVTCKSSQNVGTNVAWYQQKPGQSPKALIYSASYRYSGVPDHFTGSGSGTDFTLTISNVQSADLAEYFCQQYNNYPWTFGGGTKLDIK
B4: RBD-chAb-51 (antibody, V domains shown)
VH: B3 VH with V18A, I34M, L41H, N51I, D56G, K61N, F63T, Y103F, F109Y, T114I
VL: DIVMTQSQKFMSTSVGDRVSVTCKARQIVGTNVAWYQQKPGQSPKALIYSASYRYSGVPDRFTGSGSGTDFTLTITNVHSEDLAEFFCHQYNSYPWTFGGGTKLDIK
B5: RBD-chAb-1 (antibody, V domains shown)
VH: EVQLQQSGPQLVRPGASMKISCKASGYSFTTYWMHWVKQRPGQGLQWIGMIDPSDSETRLNQKFKDKATLTVDKSSSTAYMQLSSPTSEDSAVYYCARDFDYDRTMDYWGQGTSVTVSS
VL: DIVMSQSPSSLAVSVGEKVTMSCKSSQSLLFSSSQKNYLAWYQQKAGQSPKLLIFWASTRESGVPDRFTGSGSGTDFTLTISSVKAEDLAIYYCKQYYKYPLTFGAGTKLDIK

How the values were obtained:
Experiment in all cases: cell-based or functional assay
[1] = substrate: S protein of SARS-CoV-2 variant B.1.1.7 (UK, Alpha), full length, on pseudovirus or authentic virus (SARS-CoV-2), P0DTC2
[2] = substrate: S protein of SARS-CoV-2 variant P1 (Brazil, Gamma), full length, on pseudovirus or authentic virus (SARS-CoV-2), P0DTC2
[3] = substrate: S protein of SARS-CoV-2 variant B.1.351 (SA, Beta), full length, on pseudovirus (SARS-CoV-2), P0DTC2

| Binder | PRNT50 [1] | SARS-CoV2 pseudovirus IC50 [1] | PRNT50 [2] | SARS-CoV2 pseudovirus IC50 [2] | SARS-CoV2 pseudovirus IC50 [3] |
| --- | --- | --- | --- | --- | --- |
| B1 | 58.1 ng/mL | 39.7 ng/mL | 50.9 ng/mL | 7.18 ng/mL | 30.1 ng/mL |
| B2 | 58.5 ng/mL | 11.3 ng/mL | 58.3 ng/mL | 4.18 ng/mL | 16.5 ng/mL |
| B3 | 5.29 ng/mL | 2.06 ng/mL | 3.26 ng/mL | 0.76 ng/mL | 2.68 ng/mL |
| B4 | 6.39 ng/mL | 3.07 ng/mL | 2.92 ng/mL | 0.7 ng/mL | 1.26 ng/mL |
| B5 | – | 33.5 ng/mL | – | 17.1 ng/mL | 46.7 ng/mL |
